Common to all, as to assay: SPR (Biacore)
Background: In SPR one partner is held on a chip, and binding of the other changes the refractive index at the surface.

In one assay the target is T1, HER3 (UniProt P21860 20-643, limits assumed).
T1 construct: Antigen as used in Biacore; also called ErbB3

For assay [1], the target named is T2, cMet (UniProt P08581 25-932, limits assumed).
T2 construct: Antigen as used in Biacore

Assay [2] concerns the target T2, cMet. The source holds these as a separate data set.

Positions count from the first letter of the chain named. Where only a bound is given, the exact number is not on record here.

T2 sequence (P08581 25-932 limits assumed): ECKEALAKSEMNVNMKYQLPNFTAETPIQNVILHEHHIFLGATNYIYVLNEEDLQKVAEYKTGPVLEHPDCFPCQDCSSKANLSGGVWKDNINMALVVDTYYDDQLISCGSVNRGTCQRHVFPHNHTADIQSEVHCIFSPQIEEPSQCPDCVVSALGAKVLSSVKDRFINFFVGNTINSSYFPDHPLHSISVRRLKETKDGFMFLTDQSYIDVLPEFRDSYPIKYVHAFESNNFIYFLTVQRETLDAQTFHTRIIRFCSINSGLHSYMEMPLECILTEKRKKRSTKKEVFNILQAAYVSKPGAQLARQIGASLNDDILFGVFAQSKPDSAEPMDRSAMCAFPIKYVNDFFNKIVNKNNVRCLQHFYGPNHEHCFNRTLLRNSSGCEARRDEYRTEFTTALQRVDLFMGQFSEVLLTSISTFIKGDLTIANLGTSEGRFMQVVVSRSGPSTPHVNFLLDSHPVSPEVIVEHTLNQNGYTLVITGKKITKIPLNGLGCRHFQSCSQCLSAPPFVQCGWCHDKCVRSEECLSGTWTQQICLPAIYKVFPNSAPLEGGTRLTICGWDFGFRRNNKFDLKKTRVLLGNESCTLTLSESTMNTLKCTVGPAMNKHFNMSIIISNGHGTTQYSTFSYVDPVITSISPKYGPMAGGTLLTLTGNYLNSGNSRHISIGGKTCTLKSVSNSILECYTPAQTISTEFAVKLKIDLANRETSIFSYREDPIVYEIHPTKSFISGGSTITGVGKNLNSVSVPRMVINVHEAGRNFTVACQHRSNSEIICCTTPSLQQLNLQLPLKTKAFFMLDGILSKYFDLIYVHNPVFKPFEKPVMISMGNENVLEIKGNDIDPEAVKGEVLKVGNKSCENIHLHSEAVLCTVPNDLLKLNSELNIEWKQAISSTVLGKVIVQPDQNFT

B1: Her3_MetSS_KHSS_FS1 (protease cleavage during expression) (bispecific antibody)
heavy 1: not shown
heavy 2: not shown
chain: ALGGGGSGGGGSDIQMTQSPSSLSASVGDRVTITCKSSQSLLYTSSQKNYLAWYQQKPGKAPKLLIYWASTRESGVPSRFSGSGSGTDFTLTISSLQPEDFATYYCQQYYAYPWTFGCGTKVEIKR
light: DIQMTQTTSSLSASLGDRVTISCRARQDISNYLNWYQRKPDGTVKLLIYYTSRLHSGVPSRFSGSGSGTDYSLTISNLEQEDIATYFCQQGNTFPWTFGGGTKLEIKRTVAAPSVFIFPPSDEQLKSGTASVVCLLNNFYPREAKVQWKVDNALQSGNSQESVTEQDSKDSTYSLSSTLTLSKADYEKHKVYACEVTHQGLSSPVTKSFNRGEC
notes: Trivalent Her3-cMet bispecific: full length anti-Her3 IgG with knobs-into-holes, cMet dsFv (VHCys44/VLCys100) at the C-termini; Arg/Lys residues before the cleavage site were removed
For orientation: Kd means the constant that tells how readily two partners part at equilibrium. Low readings indicate a tighter complex, high ones a looser complex. The koff is the rate constant with which the complex falls apart. The term kon denotes the rate constant with which the complex forms. The low end stands for slow association, the high end for fast association. For the molecule B1, in the assay with HER3, the Kd stood at 2.05 nM, the koff was determined as 0.000338 s⁻¹ and the kon turned out to be 165000 M⁻¹ s⁻¹. In the assay with cMet [1], this molecule came in with a Kd of 6.05 nM, a koff of 0.000188 s⁻¹ and a kon of 31200 M⁻¹ s⁻¹.

B2: Her3_MetSS_KHSS_PreSci_digested (after purification and protease cleavage) (bispecific antibody)
heavy 1: not shown
heavy 2: not shown
chain: GPSGGGGSGGGGSDIQMTQSPSSLSASVGDRVTITCKSSQSLLYTSSQKNYLAWYQQKPGKAPKLLIYWASTRESGVPSRFSGSGSGTDFTLTISSLQPEDFATYYCQQYYAYPWTFGCGTKVEIKR
light: B1 light
notes: the VL stays attached through the dsFv disulfide
Regarding B2, in the assay with HER3, the affinity, expressed as Kd, was 2.02 nM; the koff is 0.000356 s⁻¹; the kon amounted to 176000 M⁻¹ s⁻¹. Also, in the assay with cMet [1], the Kd turned out to be 8.35 nM, the koff was determined as 0.000203 s⁻¹ and the kon worked out at 24300 M⁻¹ s⁻¹. Further, the “fold improved affinity against the restricted form” value with cMet [2] was over 30 fold.

B3: Her3_MetSS_KHSS_PreSci (purified intermediate) (bispecific antibody, human IgG1, kappa)
heavy 1: not shown
heavy 2: not shown
light: B1 light
notes: also called restricted dsFv module; double-tethered dsFv
In the assay with HER3, B3 came in with a Kd of 2.4 nM, a koff of 0.000414 s⁻¹ and a kon of 172000 M⁻¹ s⁻¹. In the assay with cMet [1], this molecule displayed a Kd of 369 nM, a koff of 0.000197 s⁻¹ and a kon of 533 M⁻¹ s⁻¹. Further, the “fold reduced affinity against the Wildtype Fab” value with cMet [2] is over 20 fold.

B4: Her3_MetSS_KHSS_FS2 (protease cleavage during expression) (bispecific antibody)
heavy 1: not shown
heavy 2: not shown
chain: B1 chain with A1S
light: B1 light
notes: As m1 but with furin site variant 2
For B4, in the assay with cMet [1], the Kd was determined as 7.05 nM, the koff was 0.000193 s⁻¹ and the kon is 27400 M⁻¹ s⁻¹.
